Source: US20170088593A1 (UNIVERSITY OF FLORIDA RESEARCH FOUNDATION, published 2017)

Target: Keap-1 (UniProt Q14145 1-624)
Assay: cell-based or functional assay

Chain of Keap-1 (Q14145 whole entry): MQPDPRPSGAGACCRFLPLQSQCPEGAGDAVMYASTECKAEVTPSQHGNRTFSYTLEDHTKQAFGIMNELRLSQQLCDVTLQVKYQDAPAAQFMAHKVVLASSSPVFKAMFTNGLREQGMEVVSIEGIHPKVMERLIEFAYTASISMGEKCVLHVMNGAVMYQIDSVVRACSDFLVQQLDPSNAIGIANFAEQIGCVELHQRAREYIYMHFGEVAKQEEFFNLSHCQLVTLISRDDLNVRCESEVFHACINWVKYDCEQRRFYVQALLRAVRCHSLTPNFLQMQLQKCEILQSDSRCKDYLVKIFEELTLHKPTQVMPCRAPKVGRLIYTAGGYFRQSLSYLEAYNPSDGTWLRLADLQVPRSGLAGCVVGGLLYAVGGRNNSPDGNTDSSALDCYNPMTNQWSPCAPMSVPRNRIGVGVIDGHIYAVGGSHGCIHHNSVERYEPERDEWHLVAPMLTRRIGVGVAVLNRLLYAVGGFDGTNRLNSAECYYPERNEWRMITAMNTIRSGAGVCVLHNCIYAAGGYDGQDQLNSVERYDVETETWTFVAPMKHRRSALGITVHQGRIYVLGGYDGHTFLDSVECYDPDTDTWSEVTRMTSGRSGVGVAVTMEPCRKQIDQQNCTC

RKKRRQRRRLQLDEETGEFLPIQ [TatNrf2-14mer peptide (HIV-1 Tat cell penetrating peptide fused to the Nrf2 14mer)]
GSTM1 mRNA (antioxidant enzyme and marker of the ARE response), RT-PCR in human retinal pigment epithelial cells treated with the TatNrf2 plasmid: 18 fold
